The values below come from patent US20250026827A1 (Alector, published 2025).

The target of test [1] is T1, mouse SIRPα on cells (mouse, UniProt P97797 32-513).
T1 construct: whole, on cells
T1 sequence (looked up): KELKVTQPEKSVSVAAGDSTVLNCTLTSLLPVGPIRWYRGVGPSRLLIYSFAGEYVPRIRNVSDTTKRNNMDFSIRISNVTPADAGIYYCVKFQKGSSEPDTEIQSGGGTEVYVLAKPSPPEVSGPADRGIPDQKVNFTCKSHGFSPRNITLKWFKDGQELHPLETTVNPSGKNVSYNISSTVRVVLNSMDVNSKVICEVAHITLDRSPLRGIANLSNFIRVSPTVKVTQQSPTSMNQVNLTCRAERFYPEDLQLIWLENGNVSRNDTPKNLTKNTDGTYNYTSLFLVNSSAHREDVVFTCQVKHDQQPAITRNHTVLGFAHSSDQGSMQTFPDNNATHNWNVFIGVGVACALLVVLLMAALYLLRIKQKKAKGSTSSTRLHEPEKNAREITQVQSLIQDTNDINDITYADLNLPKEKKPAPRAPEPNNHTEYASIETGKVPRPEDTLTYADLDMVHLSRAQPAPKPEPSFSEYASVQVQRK
Kind of test: flow cytometry. In general terms: In flow cytometry, cells or beads pass a laser one at a time.
Method: (§1) Initial characterization of anti-SIRPβ1 antibodies involved determining their ability to bind cell lines expressing human or mouse SIRPβ1. Cells were harvested, plated at 10⁶/ml in a 96-well plate, washed, and incubated in 100 μl FACS buffer containing 1 μg/ml anti-SIRPβ1 antibody for 0.5 hour on ice. Cells were then washed twice and incubated in 100 μl FACS buffer containing 0.5 μg/ml PE-conjugated secondary antibody for 30 minutes on ice. Cells were washed twice in cold FACS buffer and acquired on a BD FACS Canto. Data analysis and calculation of mean fluorescence intensity (MFI) values or 00 positive cells was performed with FlowJo (TreeStar) software version 10.0.7.
(§2) As a negative control, the anti-SIRPβ1 antibodies were also screened for surface binding to CHO cells overexpressing recombinant mouse SIRPβ31. […] Given the high sequence similarity between receptors of the SIRPβ family, anti-SIRPβ1 antibodies were also screened for cross-reactivity to human and mouse SIRPα.

The target of test [2] is T2, mouse SIRPβ1 on CHO cells (mouse).
T2 construct: Whole entry
T2 chain: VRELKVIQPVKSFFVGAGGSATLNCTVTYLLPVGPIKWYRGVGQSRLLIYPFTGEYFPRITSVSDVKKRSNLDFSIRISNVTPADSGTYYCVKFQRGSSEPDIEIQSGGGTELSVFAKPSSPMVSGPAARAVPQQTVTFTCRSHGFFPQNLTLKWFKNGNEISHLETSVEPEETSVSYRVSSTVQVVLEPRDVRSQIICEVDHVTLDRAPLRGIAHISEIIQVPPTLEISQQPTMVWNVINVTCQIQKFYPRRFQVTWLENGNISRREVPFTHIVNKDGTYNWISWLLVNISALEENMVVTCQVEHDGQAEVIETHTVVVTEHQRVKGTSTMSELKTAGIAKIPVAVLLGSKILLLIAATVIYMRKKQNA
Kind of test: flow cytometry.
Method: as §1, §2

Test [3] addresses T3, human SIRPβ1 isoform 1 on cells (human, UniProt O00241 30-398).
T3 construct: On CHO cells (low level), on BWZ/BW5147.G.1.4 cells (reporter cells co-express human DAP12) or on primary human myeloid cells; also called huSIRPβ1; BWZ-huSIRPβ1
Kind of test: flow cytometry.
Method: as §1, §2

The target in test [4] is T4, human SIRPα on cells (human, UniProt P78324 31-504).
T4 construct: Whole entry
Kind of test: flow cytometry.
Method: as §1, §2

Test [5] has as its target T5, human SIRPα domain 1 (D1) Fc fusion (human, UniProt P78324 32-149).
T5 construct: also called human SIRPα D1-Fc; Human SIRPα Fc; not shown: C-terminal human IgG1 Fc
In words: Octet. For orientation: In BLI a coated tip is dipped into the sample, and binding shifts an interference pattern.

Test [6] has as its target T6, mouse SIRPα D1-Fc (mouse, UniProt P97797 32-150, limits assumed).
T6 construct: domain: D1
T6 sequence (looked up): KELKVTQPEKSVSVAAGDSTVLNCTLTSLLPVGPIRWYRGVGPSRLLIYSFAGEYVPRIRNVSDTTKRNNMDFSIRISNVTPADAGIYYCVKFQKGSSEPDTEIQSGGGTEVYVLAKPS
Kind of test: Octet.

The target in test [7] is T1, mouse SIRPα on cells. In words: flow cytometry. This is another data set of the same source.
Test [8] has as its target T2, mouse SIRPβ1 on CHO cells. In words: flow cytometry.
Test [9] deals with T4, human SIRPα on cells. Kind of test: flow cytometry. The source holds these as a separate data set.
Test [10] deals with T7, human SIRPβ1 domain 1 (D1) Fc fusion (human, UniProt O00241 30-148).
T7 construct: Made in HEK293/T cells with a heterologous signal peptide; also called Human SIRPβ1 D1-Fc; Human SIRPβ1-Fc; not shown: C-terminal human IgG1 Fc
T7 sequence (O00241 30-148 limits assumed): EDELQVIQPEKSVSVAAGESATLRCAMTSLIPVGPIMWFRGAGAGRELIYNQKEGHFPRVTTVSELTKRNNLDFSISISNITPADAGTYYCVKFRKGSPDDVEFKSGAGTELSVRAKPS
In words: Octet, IgG avid.

Numbering of substitutions follows the chain as printed.
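Wherever FOB is given: antibodies tested at 1 µg/ml for 30 min on ice against receptor-expressing cells, detected with a PE-labelled secondary antibody, read as mean fluorescence intensity relative to background.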

T3 sequence (O00241 30-398): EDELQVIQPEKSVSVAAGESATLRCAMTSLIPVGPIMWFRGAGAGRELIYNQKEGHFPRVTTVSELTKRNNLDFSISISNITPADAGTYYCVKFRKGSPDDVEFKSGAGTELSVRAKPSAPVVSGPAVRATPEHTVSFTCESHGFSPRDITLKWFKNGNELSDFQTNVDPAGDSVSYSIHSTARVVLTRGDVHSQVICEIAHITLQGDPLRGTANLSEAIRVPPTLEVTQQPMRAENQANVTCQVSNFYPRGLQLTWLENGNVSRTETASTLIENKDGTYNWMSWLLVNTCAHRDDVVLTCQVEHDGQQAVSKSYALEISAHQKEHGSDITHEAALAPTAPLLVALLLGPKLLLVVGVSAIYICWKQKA

B1: SB-13 (antibody, V domains shown)
VH: QVQLQESGPGLVKPSETLSLTCTVSGGSISSYYWSWIRQPPGKGLEWIGSIYYSGSTNYNPSLKSRVTISVDTSKNQFSLKLSSVTAADTAVYYCARGDTSGGAYFDLWGRGTLVTVSS
VL: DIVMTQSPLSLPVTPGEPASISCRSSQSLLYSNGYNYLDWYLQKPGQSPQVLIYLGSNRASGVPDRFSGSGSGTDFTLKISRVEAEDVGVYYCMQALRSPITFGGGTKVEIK
notes: IgG
As for B1, the FOB in test [1] came out at 0.9 fold over background; in test [2], 1.2 fold over background; in test [3], 1.9 fold over background; in test [4], 1.9 fold over background. Also, the binding result is listed as “no binding (tested: 100 nM)” in test [5]; “no binding (tested: 100 nM)” in [6]; “no binding (tested: 1 ug/ml)” in test [7]; “no binding (tested: 1 ug/ml)” in [8]; “no binding (tested: 1 ug/ml)” in test [9].

B2: SB-32 (antibody, V domains shown)
VH: QVQLQESGPGLVKPSETLSLTCTVSGGSISSYYWSWIRQPPGKGLEWIGYIYSSGSTNYNPSLKSRVTISVDTSKNQFSLKLSSVTAADTAVYYCARGDSSSGGLDLWGRGTLVTVSS
VL: not shown
notes: IgG
Regarding B2, in [10], the affinity, expressed as Kd, was 7.13 nM. For the same molecule, the FOB worked out at 1.2 fold over background in test [1], 1.2 fold over background in test [2], 1.5 fold over background in test [3] and 2.2 fold over background in [4]. The binding result in test [6] is on record as “no binding (tested: 100 nM)”; in test [7] it was “no binding (tested: 1 ug/ml)”; in test [8], “no binding (tested: 1 ug/ml)”.

B3: SB-50 (antibody, V domains shown)
VH: QVQLVQSGAEVKKPGSSVKVSCKASGGTFSSYAISWVRQAPGQGLEWMGGIIPIFGTANYAQKFQGRVTITADESTSTAYMELSSLRSEDTAVYYCAREGGGHASYHYYGMDVWGQGTTVTVSS
VL: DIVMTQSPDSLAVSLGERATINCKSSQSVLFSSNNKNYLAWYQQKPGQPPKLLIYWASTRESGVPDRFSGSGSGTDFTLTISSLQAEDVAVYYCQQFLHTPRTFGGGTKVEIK
notes: IgG
Regarding B3, the FOB in test [1] turned out to be 1.7 fold over background; in test [2] it was 1.2 fold over background; in test [3], 2.8 fold over background; in test [4], 2.5 fold over background. The binding result in [5] was “no binding (tested: 100 nM)”; in test [6] it was “no binding (tested: 100 nM)”; in [7], “no binding (tested: 1 ug/ml)”; in test [8], “no binding (tested: 1 ug/ml)”; in [9], “no binding (tested: 1 ug/ml)”.

B4: SB-34 (antibody, V domains shown)
VH: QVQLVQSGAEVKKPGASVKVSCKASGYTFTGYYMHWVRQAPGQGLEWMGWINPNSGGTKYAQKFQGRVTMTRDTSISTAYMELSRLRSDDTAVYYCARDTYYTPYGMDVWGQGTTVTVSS
VL: EIVMTQSPATLSVSPGERATLSCRASQSVSSNLAWYQQKPGQAPRLLIYGASTRATGIPARFSGSGSGTEFTLTISSLQSEDFAVYYCQQDNTFPYTFGGGTKVEIK
notes: IgG
For the molecule B4, the FOB in test [1] came out at 1.3 fold over background; in [2], 1.2 fold over background; in [3], 1.8 fold over background; in [4], 2 fold over background. In addition, the binding result in test [5] is “no binding (tested: 100 nM)”; in test [6] it was “no binding (tested: 100 nM)”; in test [7] it was “no binding (tested: 1 ug/ml)”; in [8] it was “no binding (tested: 1 ug/ml)”; in [9], “no binding (tested: 1 ug/ml)”.

B5: SB-5 (antibody, V domains shown)
VH: not shown
VL: EIVLTQSPATLSLSPGERATITCRASQSVSSYLAWYQQKPGQAPRLLIYDASNRATGIPARFSGSGSGTDFTLTISSLEPEDFAVYYCQQRLFHPPTFGGGTKVEIK
notes: IgG
With B5, the FOB came out at 1.5 fold over background in [1], 1.3 fold over background in [2], 1.6 fold over background in test [3] and 2 fold over background in [4]. In addition, the binding result in [5] was “no binding (tested: 100 nM)”; in test [6] it was “no binding (tested: 100 nM)”; in [7] it was “no binding (tested: 1 ug/ml)”; in [8], “no binding (tested: 1 ug/ml)”; in test [9] it was “no binding (tested: 1 ug/ml)”.

B6: SB-14 (antibody, V domains shown)
VH: QVQLVQSGAEVKKPGSSVKVSCKASGGTFSSYAISWVRQAPGQGLEWMGGIIPIFGTASYAQKFQGRVTITADESTSTAYMELSSLRSEDTAVYYCARDRGGVGFDYWGQGTLVTVSS
VL: B5 VL with L4M, I21L, T22S, A51S, R91F, L92S, F93Y, H94Y, P96I
notes: IgG
As to B6, the FOB worked out at 1.2 fold over background in [1], 1.3 fold over background in [2], 4.5 fold over background in [3] and 2.5 fold over background in [4]. Moreover, the binding result in test [5] is recorded as “no binding (tested: 100 nM)”; in [6] it was “no binding (tested: 100 nM)”; in test [7] it was “no binding (tested: 1 ug/ml)”; in test [8], “no binding (tested: 1 ug/ml)”; in test [9], “no binding (tested: 1 ug/ml)”.

B7: SB-39 (antibody, V domains shown)
VH: QVQLQESGPGLVKPSETLSLTCAVSGYSISSGYYWAWIRQPPGKGLEWIGSIYHSGSTYYNPSLKSRVTISVDTSKNQFSLKLSSVTAADTAVYYCARGGSNYGDYGRFDYWGQGTLVTVSS
VL: DIQMTQSPSSLSASVGDRVTITCRASQSISSYLNWYQQKPGKAPKLLIYGASSLQSGVPSRFSGSGSGTDFTLTISSLQPEDFATYYCQQSYDFPLTFGGGTKVEIK
notes: IgG
Regarding B7, binding in test [10] was put at a Kd of 21.4 nM. Further, the FOB in test [1] is 1.1 fold over background; in [2], 1.4 fold over background; in test [3], 5 fold over background; in test [4], 2 fold over background. Besides, the binding result in test [6] is given as “no binding (tested: 100 nM)”; in test [7], “no binding (tested: 1 ug/ml)”; in [8] it was “no binding (tested: 1 ug/ml)”.

B8: SB-41 (antibody, V domains shown)
VH: QLQLQESGPGLVKPSETLSLTCTVSGGSISSSSYYWGWIRQPPGKGLEWIGSIYYSGSTYYNPSLKSRVTISVDTSKNQFSLKLSSVTAADTAVYYCARVGQYPIYGMDVWGQGTTVTVSS
VL: DIQMTQSPSSLSASVGDRVTITCQASQDITNYLNWYQQKPGKAPKLLIYDASNLETGVPSRFSGSGSGTDFTFTISSLQPEDIATYYCQQADNFPYTFGGGTKVEIK
notes: IgG
Turning to B8, the Kd (as a rule, the constant that tells how readily two partners part at equilibrium) in test [10] amounted to 10.3 nM. Also, the FOB was found to be 1.7 fold over background in test [1], 1.3 fold over background in [2], 1.7 fold over background in test [3] and 2.2 fold over background in [4]. Moreover, the figures for the binding result in [6], in test [7] and in [8] were “no binding (tested: 100 nM)”, “no binding (tested: 1 ug/ml)” and “no binding (tested: 1 ug/ml)”, respectively.

B9: SB-10 (antibody, V domains shown)
VH: QVQLVQSGAEVKKPGSSVKVSCKASGGTFSSYAISWVRQAPGQGLEWMGGIIPIFGTANYAQKFQGRVTITADESTSTAYMELSSLRSEDTAVYYCARGVPRGDLGMDVWGQGTTVTVSS
VL: not shown
notes: IgG
Turning to B9, the FOB in test [1] came out at 1 fold over background; in test [2], 1.4 fold over background; in test [3], 3.8 fold over background; in test [4], 2.4 fold over background. Moreover, the binding result in test [5] was “no binding (tested: 100 nM)”; in test [6], “no binding (tested: 100 nM)”; in [7], “no binding (tested: 1 ug/ml)”; in test [8] it was “no binding (tested: 1 ug/ml)”; in test [9] it was “no binding (tested: 1 ug/ml)”.

B10: SB-30 (antibody, V domains shown)
VH: QVQLQESGPGLVKPSQTLSLTCTVSGGSISSGGYYWSWIRQHPGKGLEWIGYIYYSGSTVYNPSLKSRVTISVDTSKNQFSLKLSSVTAADTAVYYCAREGPGYPSYFDPWGQGTLVTVSS
VL: EIVLTQSPGTLSLSPGERATLSCRASQSVSSSFLAWYQQKPGQAPRLLIYGASSRATGIPDRFSGSGSGTDFTLTISRLEPEDFAVYYCQQFLSSPWTFGGGTKVENQ
notes: IgG
On to B10, for which the Kd in test [10] came to 7.87 nM. Besides, the FOB came out at 1.5 fold over background in test [1], 1.4 fold over background in test [2], 1.7 fold over background in test [3] and 2.1 fold over background in test [4]. Also, the binding result in [6] is given as “no binding (tested: 100 nM)”; in test [7], “no binding (tested: 1 ug/ml)”; in test [8] it was “no binding (tested: 1 ug/ml)”.
